The values that follow come from paper PMC7013354, “Selection and Characterization of CSFV-Specific Single-Domain Antibodies and Their Application along with Immunomagnetic Nanobeads and Quantum Dots” (BioMed Research International, 2020).

Holding throughout (settings): one partner purified
Test [1] has as its target T1, E2 of CSFV in infected ST cells and on CSFV virions (Classical swine fever virus, C-strain, UniProt Q96891, strain).
T1 construct: also called E2 of CSFV in ST cells
The experiment in a line: immunostaining of cells or tissue.

Test [2] deals with T1, E2 of CSFV in infected ST cells and on …. The experiment in a line: far-Western, overlay or dot blot.
Test [3] shares this target. Description: pull-down.

B1: AF488-sdAbE2-2 probe (VHH)
VHH: DVQLVESGGGLVQAGGSLRLSCTASGFTFDDYAMAWFRQPPGKEREGVSCISSSGGSTWYADSVKGRFTVSRDNAKNTLYLQMNSLKPEDTAMYYCAADWGRLCVVRGPRNEYKYSGQGTQVTVSS
notes: also called AF488-labeled sdAbE2-2
Regarding B1, in test [1], the binding result is “binds”.

B2: recombinant sdAbE2-2 (VHH)
VHH: DVQLVESGGGLVQAGGSLRLSCTASGFTFDDYAMAWFRQPPGKEREGVSCISSSGGSTWYADSVKGRFTVSRDNAKNTLYLQMNSLKPEDTAMYYCAADWGRLCVVRGPRNEYKYSGQGTQVTVSS
notes: also called sdAdE2-2; sdAbE2s
In the case of B2, the binding result in test [2] is listed as “binds”.

B3: recombinant sdAbE2-1 (VHH)
VHH: QVQLLESGGGLVQPGGSLRLSCAASGYSFIDKTMAWVRQAPGKGLEWVSAIRMHNGSTYYADSVKGRFTISRDNSKNTLYLQMNSLRAEDTAVYYCARLSRRIQAKDKAKLKYWGQGTLVTVSS
notes: also called sdAdE2-1; sdAbE2s
Consider B3, for which the binding result in test [3] was “binds”.

B4: QD-sdAbE2-1 probe (VHH)
VHH: QVQLLESGGGLVQPGGSLRLSCAASGYSFIDKTMAWVRQAPGKGLEWVSAIRMHNGSTYYADSVKGRFTISRDNSKNTLYLQMNSLRAEDTAVYYCARLSRRIQAKDKAKLKYWGQGTLVTVSS
notes: also called QD605-labeled sdAbE2-1; QDs-sdAbE2-1
Turning to B4, the binding result in test [1] is “binds”.
